Measured values reported in publication PMC3466194.

Target: TetR (Tet Repressor) (UniProt P04483)
Assay: not stated in material (in vitro binding)
Details: not given in the material held (binding assay methods absent)

TetR (Tet Repressor), sequence (P04483 whole entry): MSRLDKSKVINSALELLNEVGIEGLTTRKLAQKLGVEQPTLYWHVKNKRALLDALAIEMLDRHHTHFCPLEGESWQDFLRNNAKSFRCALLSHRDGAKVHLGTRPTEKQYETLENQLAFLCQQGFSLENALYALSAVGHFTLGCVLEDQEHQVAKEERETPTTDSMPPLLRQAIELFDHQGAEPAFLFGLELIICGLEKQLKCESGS

GGGCUUGUUACCAGACAACCAUUACUUAUCCUAUCAAUCUGCCUUAUCCAAAGAUCCAAACGAAAAGAGAGACCACAUGGUCUUGUUAGAAUUUGUUACUUAAUCUAGAAAUUAUCUAGGAUCCAGGCAGAGAAAGGUCGAUACGGACGGAAUGUGAUGGCCUGGAUCCAACACAAAACUCGAGAACAUCCCGGGAAAAUCUAGAAUUCCUUCGAUAGAUCAAUUUUUUUCUUUUCUCUUUCCCCAUCCUUUACGCUAAAAUAAUAGUUUAUUUUAUUUUUUGAAUAUUUUUUAUUUAUAUACGUAUAUAUAGACUAUUAUUUAUCUUUUAAUGAUU [3'UTR + aptamer (vYFPΔ-5-1.2 bases 613-946)]
Kd: 0.8 nM
